Target: soluble extracellular domain of human TM (Homo sapiens (Human), UniProt P07204)
Assay: competition pull-down (native Ang1 inhibits thrombin/TM co-precipitation on Ni-NTA, western blot); direct pull-down only with BowAng1; indirect readout: displacement of thrombin (5 nM) from soluble TM

Chain of soluble extracellular domain of human TM (P07204 19-515): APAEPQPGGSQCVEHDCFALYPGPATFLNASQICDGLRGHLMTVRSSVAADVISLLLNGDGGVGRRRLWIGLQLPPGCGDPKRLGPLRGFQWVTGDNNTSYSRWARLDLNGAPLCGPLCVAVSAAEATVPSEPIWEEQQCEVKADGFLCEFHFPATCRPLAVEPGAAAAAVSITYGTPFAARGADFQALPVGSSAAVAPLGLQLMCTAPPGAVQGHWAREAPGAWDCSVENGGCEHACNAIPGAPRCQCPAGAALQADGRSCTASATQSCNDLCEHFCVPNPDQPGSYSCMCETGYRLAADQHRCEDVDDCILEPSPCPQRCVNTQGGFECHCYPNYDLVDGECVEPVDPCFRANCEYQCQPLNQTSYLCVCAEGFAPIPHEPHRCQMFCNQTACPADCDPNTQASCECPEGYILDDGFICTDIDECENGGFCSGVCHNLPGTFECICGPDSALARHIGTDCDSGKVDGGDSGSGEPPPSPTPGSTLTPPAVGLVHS

B1: native human Ang1 (protein)
chain: HIGCSNQRRSPENSGRRYNRIQHGQCAYTFILPEHDGNCRESTTDQYNTNALQRDAPHVEPDFSSQKLQHLEHVMENYTQWLQKLENYIVENMKSEMAQIQQNAVQNHTATMLEIGTSLLSQTAEQTRKLTDVETQVLNQTSRLEIQLLENSLSTYKLEKQLLQQTNEILKIHEKNSLLEHKILEMEGKHKEELDTLKEEKENLQGLVTRQTYIIQELEKQLNRATTNNSVLQKQQLELMDTVHNLVNLCTKEGVLLKGGKREEEKPFRDCADVYQAGFNKSGIYTIYINNMPEPKKVFCNMDVNGGGWTVIQHREDGSLDFQRGWKEYKMGFGNPSGEYWLGNEFIFAITSQRQYMLRIELMDWEGNRAYSQYDRFHIGNEKQNYRLYLKGHTGTAGKQSSLILHGADFSTKDADNDNCMCKCALMLTGGWWFDACGPSNLNGMFYTAGQNHGKLNGIKWHYFKGPSYSLRSTTMMIRPLDF
binding result: binds

— paper PMC5765006 (2018)
